Experimental data published in patent publication US20240101645A1 (HENRY M JACKSON FOUNDATION FOR THE ADVANCEMENT OF MILITARY …, published 2024).
Numbering of substitutions follows the chain as printed.

T1: HCoV-NL63 spike antigens (bead panel) (HCoV-NL63, UniProt Q6Q1S2 19-1296)
T1 sequence: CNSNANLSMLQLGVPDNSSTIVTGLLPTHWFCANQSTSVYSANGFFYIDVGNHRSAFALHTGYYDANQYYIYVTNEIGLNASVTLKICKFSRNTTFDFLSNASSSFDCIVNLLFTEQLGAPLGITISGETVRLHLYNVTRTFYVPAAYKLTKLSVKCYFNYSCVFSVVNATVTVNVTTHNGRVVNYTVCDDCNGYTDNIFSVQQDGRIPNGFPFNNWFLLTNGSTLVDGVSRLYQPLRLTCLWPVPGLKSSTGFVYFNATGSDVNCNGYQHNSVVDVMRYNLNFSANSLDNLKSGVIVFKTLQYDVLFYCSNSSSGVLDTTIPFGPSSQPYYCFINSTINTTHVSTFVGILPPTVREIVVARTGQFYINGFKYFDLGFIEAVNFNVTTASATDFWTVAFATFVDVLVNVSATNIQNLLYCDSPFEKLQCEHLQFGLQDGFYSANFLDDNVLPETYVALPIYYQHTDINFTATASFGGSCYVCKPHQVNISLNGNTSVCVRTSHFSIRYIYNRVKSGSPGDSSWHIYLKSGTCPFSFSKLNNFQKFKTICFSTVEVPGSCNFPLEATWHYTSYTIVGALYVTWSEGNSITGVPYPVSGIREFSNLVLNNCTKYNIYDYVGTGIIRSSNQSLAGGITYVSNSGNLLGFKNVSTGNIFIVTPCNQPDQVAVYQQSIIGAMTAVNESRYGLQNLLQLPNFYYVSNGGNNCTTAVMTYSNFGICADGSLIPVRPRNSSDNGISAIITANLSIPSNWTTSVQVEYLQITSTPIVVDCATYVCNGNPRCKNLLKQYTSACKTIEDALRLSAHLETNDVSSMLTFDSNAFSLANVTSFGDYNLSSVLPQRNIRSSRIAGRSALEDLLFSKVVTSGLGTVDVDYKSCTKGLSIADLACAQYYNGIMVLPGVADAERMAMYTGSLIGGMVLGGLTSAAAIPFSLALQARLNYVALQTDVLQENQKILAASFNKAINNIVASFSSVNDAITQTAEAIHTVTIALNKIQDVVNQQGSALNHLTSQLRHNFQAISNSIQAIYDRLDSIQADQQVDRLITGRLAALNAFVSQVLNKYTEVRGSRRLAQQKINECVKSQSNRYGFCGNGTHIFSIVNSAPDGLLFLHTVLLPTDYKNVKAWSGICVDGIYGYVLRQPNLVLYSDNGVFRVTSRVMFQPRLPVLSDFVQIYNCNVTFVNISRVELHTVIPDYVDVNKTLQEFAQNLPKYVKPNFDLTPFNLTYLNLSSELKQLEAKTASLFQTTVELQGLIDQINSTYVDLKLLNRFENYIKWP

T2: HCoV-HKU1 spike antigens (bead panel) (HCoV-HKU1, UniProt Q5MQD0 13-1300)
T2 sequence: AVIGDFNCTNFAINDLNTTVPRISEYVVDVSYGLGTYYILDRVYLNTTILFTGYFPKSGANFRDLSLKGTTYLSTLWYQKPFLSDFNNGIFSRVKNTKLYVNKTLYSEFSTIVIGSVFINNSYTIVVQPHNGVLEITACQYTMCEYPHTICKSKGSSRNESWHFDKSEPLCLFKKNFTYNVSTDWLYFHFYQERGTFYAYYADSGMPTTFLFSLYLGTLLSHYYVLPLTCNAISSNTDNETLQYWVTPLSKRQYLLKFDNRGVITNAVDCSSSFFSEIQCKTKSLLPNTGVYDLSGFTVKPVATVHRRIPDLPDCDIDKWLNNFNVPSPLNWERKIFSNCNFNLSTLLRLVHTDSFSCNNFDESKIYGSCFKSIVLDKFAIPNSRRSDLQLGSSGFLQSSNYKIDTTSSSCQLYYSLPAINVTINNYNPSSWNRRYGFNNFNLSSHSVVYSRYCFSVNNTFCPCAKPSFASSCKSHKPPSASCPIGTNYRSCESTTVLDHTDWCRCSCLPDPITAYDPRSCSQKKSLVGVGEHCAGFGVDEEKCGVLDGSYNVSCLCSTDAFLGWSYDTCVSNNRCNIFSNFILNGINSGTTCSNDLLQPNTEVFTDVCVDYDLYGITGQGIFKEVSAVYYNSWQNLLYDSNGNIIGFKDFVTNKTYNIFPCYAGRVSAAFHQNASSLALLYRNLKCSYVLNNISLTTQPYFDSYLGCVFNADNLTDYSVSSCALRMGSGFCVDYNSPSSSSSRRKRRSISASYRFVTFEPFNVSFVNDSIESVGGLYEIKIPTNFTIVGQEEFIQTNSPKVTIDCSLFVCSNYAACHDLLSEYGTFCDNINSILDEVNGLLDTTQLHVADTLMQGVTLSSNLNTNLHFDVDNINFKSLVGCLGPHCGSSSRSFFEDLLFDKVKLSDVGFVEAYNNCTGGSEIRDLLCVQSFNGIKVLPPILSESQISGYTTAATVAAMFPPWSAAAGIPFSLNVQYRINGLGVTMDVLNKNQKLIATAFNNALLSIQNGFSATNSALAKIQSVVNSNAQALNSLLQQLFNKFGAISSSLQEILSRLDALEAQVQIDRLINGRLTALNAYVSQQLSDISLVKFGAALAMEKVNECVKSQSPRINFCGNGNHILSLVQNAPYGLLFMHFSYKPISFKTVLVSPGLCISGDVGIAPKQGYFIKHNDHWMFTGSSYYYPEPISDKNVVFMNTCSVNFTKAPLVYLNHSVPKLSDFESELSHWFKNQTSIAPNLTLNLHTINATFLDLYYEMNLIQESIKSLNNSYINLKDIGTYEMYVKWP

B1: COV_3069 (antibody, V domains shown)
VH: EVQLVESGGGLVKPGGSLRLSCAASGFTFGSYTMNWVRQAPGKGLEWVSSIDTTSSSIYYADSLKGRFAISRDSAKNSLYLQMNRLRAEDTAVYYCARGNGHSYDSSGYHYGMYFDYWGQGTLVTVSS
VL: DIQMTQSPSTLSASVGDRVTITCRASQSISRWLAWYQQKPGKAPKLLIYEVSSLENGVPSRFSGSRSGTEFTLTISSLQPDDFAIYYCQQYNTYSRTFGQGTKVEIKR
notes: human IgG1
B2: COV_2169 (antibody, V domains shown)
VH: EVQLVESGGGVVQPGRSLRLSCAASGFTFSRYAMHWVRQAPGKGLEWVAVISYEGSNKYYADSVKGRFTISRNNSNNTLSLQMNSLRPDDTAVYYCVRSGGHYFDAFDLWGQGTMVTVSS
VL: EIVLTQSPGTLSLSPGERATLSCRASQSVSRNYVAWYQQKPGQAPRLLIYGASSRATGIPDRFSGSGSGTDFTLTISRLEPEDFALYYCQQYGSSYTFGQGTKLEIKR
notes: human IgG1
B3: COV_3129 (antibody, V domains shown)
VH: QVQLQQWGAGLLKPSDTLSLTCAANGGGSFSGYYLGYIRQSPGKGLEWIGEINHNGGTNYNPSLKSRVTISGDTSKNQFSLKLSSVTAADTAIYYCARSRDSSLGDAVWYEYWGQGTLITVSS
VL: EIVLTQSPATLSLSPGERATLSCRASQSVDIYLAWYQQRPGQAPRLLISDASKRATGVPARFSGSGSGTDFTLTINSLEPEDFAIYYCQQRRDWPINFGQGTRLEIKR
notes: human IgG1
B4: COV_2032 (antibody, V domains shown)
VH: EVQLVESGGGLVQPGGSLRLSCAASGFTFTTYWMHWVRQAPGKGLVWVSRIKTDGSSTNYADSVKGRFTISRDNAKNMLYLQMNSLRAEDTAVYYCAREGPVSIVYFDYWGQGTLVTVSS
VL: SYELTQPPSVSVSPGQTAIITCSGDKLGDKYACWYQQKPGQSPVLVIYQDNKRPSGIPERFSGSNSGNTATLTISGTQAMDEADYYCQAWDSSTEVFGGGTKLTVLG
notes: human IgG1
B5: COV_1145 (antibody, V domains shown)
VH: QVQLVESGGGVVQPGRSLRLSCAASGFTFSSYGMHWVRQAPGKGLEWVAVIWYDGSNKYYADSVKGRFTISRDNSKNTLYLQMNSLRVEDTAVYYCAREGQLGATGLDCWGQGTLVSVSS
VL: SYELTQPPSVSVSPGQTARITCSGDALPKKYAYWYQQKSGQAPVLVIYEDSKRPSGIPERFSGSSSGTMATLTISGAQVEDEADYYCYSTDNSGNHWVFGGGTKLTVLG
notes: human IgG1
B6: COV_2215 (antibody, V domains shown)
VH: EVQLVESGGGLVKPGGSLRLSCAASGFTFSHAWMSWVRQAPGKGLEWVGRIKSKTDGGTADYAAPVKGRFTISRDDSKNTLYLQMNSLKTEDTAVYYCATIRYYYDSSAYLNDAFDIWGQGTMVTVSS
VL: B5 VL with N92S, W97R, G100A
notes: human IgG1
B7: COV_1177 (antibody, V domains shown)
VH: QVQLVESGGGVVQPGRSLRLSCAASGFTFSSYGMHWVRQAPGKGLEWVAVIWYDGSNKYYADSVKGRFTISRDNSKNTLYLQMNSLRAEDTAVYYCARDPLGAVAGYFDYWGQGTLVTVSS
VL: SYVLTQPPSVSVAPGQTARITCGGNNIGSKSVHWYQQKPGQAPVLVVYDDSDRPSGIPERFSGSNSGNTATLTISRVEAGDEADYYCQVWDSSSDHHWVFGGGTKLTVLG
notes: human IgG1
B8: COV_2205 (antibody, V domains shown)
VH: EVQLVESGGGLVKPGGSLRLSCAASGFTFSDYYMIWIRQAPGEGLEWVSYISSRSSYTNYADSVKGRFTISRDNARNSLYLQMNSLRAEDTAVYYCARGQHDLLTGYYSWAYFDYWGQGTLVTVSS
VL: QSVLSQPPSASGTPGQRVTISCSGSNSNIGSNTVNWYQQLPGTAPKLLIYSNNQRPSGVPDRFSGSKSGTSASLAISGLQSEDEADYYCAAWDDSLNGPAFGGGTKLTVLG
notes: human IgG1
B9: COV_2125 (antibody, V domains shown)
VH: EVQLVESGGGVVQPGRSLRLSCAASGFTFSSYGMHWVRQAPGKGLEWVAVISYDGSNKYYADSVKGRFTISRDNSKNTLSLQMNSLRPEDTAVYYCAKDSPYYYDSSGYYPGYFQDWGQGSLVTVSS
VL: DIQMTQSPSSLSASIGDRVTITCRASQTISDYLNWYQQKPGKAPNLLIYAASTLQSGVPSRFSGSGSGTDFTLTISSLQPEDFATYYCQQSYITPRTFGQGTKVEIK
notes: human IgG1
B10: COV_1184 (antibody, V domains shown)
VH: QVQLQQWGAGLLKPSETLSLTCAVYGGSFSGYYWSWIRQPPGKGLEWIGEINHSGNTTYNPSLKSRVTISVDTSKNQFSLKLSSVTAADTAVYYCARGLVITYYYDSSGKPFDPWGQGTLVTVSS
VL: not shown
notes: human IgG1

target: T1, HCoV-NL63 spike antigens (bead panel); assay: multiplex bead assay

| Binder | binding result |
| --- | --- |
| B1 | no binding |
| B2 | no binding |
| B3 | no binding |
| B4 | no binding |
| B5 | no binding |
| B6 | no binding |
| B7 | no binding |
| B8 | no binding |
| B9 | no binding |
| B10 | no binding |

target: T2, HCoV-HKU1 spike antigens (bead panel); assay: multiplex bead assay

| Binder | binding result |
| --- | --- |
| B1 | no binding |
| B2 | no binding |
| B3 | no binding |
| B4 | no binding |
| B5 | no binding |
| B6 | no binding |
| B7 | no binding |
| B8 | no binding |
| B9 | no binding |
| B10 | no binding |
